Results from publication PMC6933062 (Annals of Laboratory Medicine, 2019).
Ends that are not written are not given here. * marks the point of attachment. Biotin = O=C1N[C@H]2[C@H](CS[C@H]2CCCCC(=O)*)N1; Ttds = NCCCOCCOCCOCCCNC(=O)CCC(=O)*

Molecular target: T1, biotinylated synthetic peptide containing the PDZ-binding motif of cadherin-related 23 …
T1 peptide: {Biotin-Ttds}-VIMESPLEITEL
Experiment: BLI

B1: wild-type PDZ2 domain of harmonin (domain or fragment)
chain: GGLGSPGNRTTKEKKVFISLVGSRGLGCSISSGPIQKPGIFVSHVKPGSLSAEVGLETGDQIVEVNGIDFTNLDHKEAVNVLKSSRSLTISIVAGAGRE
  Kd: 37.6 ± 4.1 µM

B2: variant PDZ2 domain of harmonin carrying p.Gly223Cys (domain or fragment)
chain: GGLGSPGNRTTKEKKVFISLVGSRGLCCSISSGPIQKPGIFVSHVKPGSLSAEVGLETGDQIVEVNGIDFTNLDHKEAVNVLKSSRSLTISIVAGAGRE
  Kd: 621 ± 88 µM
